Results as given in US20240200091A1, “USE OF PROTOPORPHYRINOGEN OXIDASE” (BEIJING DABEINONG BIOTECHNOLOGY CO., LTD., priority 2021, published 2024).

What was measured:
Type in all cases: in vivo
Settings in all cases: 7 DAT, number of plants of 24 per genotype, grades
[1] = system: Arabidopsis thaliana T1 plants; assay: sulfentrazone tolerance of transgenic Arabidopsis thaliana T1 plants (spray, grade of pesticide damage)
Description: (§1) The transformed Arabidopsis thaliana T1 plants were initially selected using glufosinate herbicide. The Arabidopsis thaliana T1 plants (PPO1A) into which the PPO1A nucleotide sequence was introduced, the Arabidopsis thaliana T1 plants (PPO2A) into which the PPO2A nucleotide sequence was introduced, the Arabidopsis thaliana T1 plants (PPO3A) into which the PPO3A nucleotide sequence was introduced, the Arabidopsis thaliana T1 plants (PPO4A) into which the PPO4A nucleotide sequence was introduced, the Arabidopsis thaliana T1 plants (PPO5A) into which the PPO5A nucleotide sequence was introduced, the Arabidopsis thaliana T1 plants (PPO6A) into which the PPO6A nucleotide sequence was introduced, the Arabidopsis thaliana T1 plants (PPO7A) into which the PPO7A nucleotide sequence was introduced, the Arabidopsis thaliana T1 plants (PPO8A) into which the PPO8A nucleotide sequence was introduced, the Arabidopsis thaliana T1 plants (PPO9A) into which the PPO9A nucleotide sequence was introduced, the Arabidopsis thaliana T1 plants (PPO10A) into which the […] nucleotide sequence was introduced, the Arabidopsis thaliana T1 plants (PPO11A) into which the PPO11A nucleotide sequence was introduced, the Arabidopsis thaliana T1 plants (PPO12A) into which the PPO12A nucleotide sequence was introduced, the Arabidopsis thaliana T1 plants (PPO13A) into which the PPO13A nucleotide sequence was introduced, the Arabidopsis thaliana T1 plants (PPO14A) into which the PPO14A nucleotide sequence was introduced, the Arabidopsis thaliana T1 plants (PPO-ATA) into which the PPO-ATA nucleotide sequence was introduced, the Arabidopsis thaliana T1 plants (PPO-APA) into which the PPO-APA nucleotide sequence was introduced, the Arabidopsis thaliana T1 plants (control vector) into which the control vector was introduced, and the wild-type Arabidopsis thaliana plants (CK) (with 24 plants being included in each genotype) (18 days after sowing) were sprayed with oxyfluorfen at three concentrations (180 g ai/ha (one-fold field concentration, 1×), 720 g ai/ha (four-fold field concentration, 4×), and 0 g ai/ha (water, 0×)), saflufenacil at three concentrations (25 g ai/ha (one-fold field concentration, 1×), 100 g ai/ha (four-fold field concentration, 4×), and 0 g ai/ha (water, 0×)), flumioxazin at three concentrations (60 g ai/ha (one-fold field concentration, 1×), 240 g ai/ha (four-fold field concentration, 4×), and 0 g ai/ha (water, 0×), and sulfentrazone at three concentrations (450 g ai/ha (one-fold field concentration, 1×), 900 g ai/ha (two-fold field concentration, 2×), and 0 g ai/ha (water, 0×) to determine the tolerance of Arabidopsis thaliana to the herbicides. After 7 days of spraying (7 DAT), the damage level of each plant caused by the herbicide was evaluated according to the average of the damage levels (%) of plants (the average of the damage levels (%) of plants=the injured leaf area/the total leaf area×[…]), i.e., the grade of pesticide damage: grade 0 means that the growth status of plants is essentially consistent with those sprayed with the blank solvent (water); grade 1 means that the average of the damage levels of plants is less than 10%; grade 2 means that the average of the damage levels of plants is greater than […]; and grade 3 means that the average of the damage levels of plants is 100%. The plants having a growth status falling within grades 0 and 1 are classified as highly resistant plants; those having a growth status falling within grade 2 are classified as poorly resistant plants; and those having a growth status falling within grade 3 are classified as non-resistant plants.

[2] = system: Arabidopsis thaliana T1 plants; assay: saflufenacil tolerance of transgenic Arabidopsis thaliana T1 plants (spray, grade of pesticide damage)
Description: as §1

[3] = system: Arabidopsis thaliana T1 plants; assay: oxyfluorfen tolerance of transgenic Arabidopsis thaliana T1 plants (spray, grade of pesticide damage)
Description: as §1

[4] = system: Arabidopsis thaliana T1 plants; assay: flumioxazin tolerance of transgenic Arabidopsis thaliana T1 plants (spray, grade of pesticide damage)
Description: as §1

B1: PPO2A: nucleotide sequence encoding microbial protoporphyrinogen oxidase PPO2 (SEQ ID NO:2), Arabidopsis thaliana/soybean common codon usage bias (nucleic acid)
DNA: ATGAGAGCCTTGCTTCTCTACAGCAGTCAAGAAGGGCAGACAAGAAAAATCATTCAGAGAATAGCAGCTCAAATGCCTGAGTACACTTGTGAAGTTCAAGATTTGCATCAATCAATAGATATTGATTGGGCCGAGTATGACAAAGTTTTAATTGGTGCATCCATCCGGTATGGACGTTTGAACCCTGCACTTTACAGGTTCATTGAGCATCACCTCGTTGGTTTGACCTCAAGGAAGGCTGCTTTCTTCTGCGTAAATCTTACCGCAAGGAAAGAACAACAAGGGAAAGACACTCCACAGGGCTCTGCATATATTCAAACATTTTTGAAGAAGAGTGCTTGGCAACCCGAAAGGATTGCTGTTTTTGCTGGTGCCCTTTATTATCCAAGATACAGATGGTTTGATAAGATGATGATCCGACTCATCATGACGTTAACTGGAGGAGAAACTGATACATCTCAGGAGGTGGAATATACAAACTGGGATAAAGTCGTGAAGTTTGCAGAGCAGTTTCGGAATTGGTGA
modifications: PPO2A Nucleotide Sequence
24 plant: The grade of pesticide damage/plant: grade 0 ([2]; saflufenacil 25 g ai/ha (1×)) | The grade of pesticide damage/plant: grade 0 ([3]; oxyfluorfen 180 g ai/ha (1×)) | The grade of pesticide damage/plant: grade 0 ([4]; flumioxazin 60 g ai/ha (1×)) | The grade of pesticide damage/plant: grade 0 ([4]; flumioxazin 240 g ai/ha (4×))
24: The grade of pesticide: grade 0 ([1]; sulfentrazone 450 g ai/ha (1×))
4 plant: The grade of pesticide damage/plant: grade 1 ([3]; oxyfluorfen 720 g ai/ha (4×))
18 plant: The grade of pesticide damage/plant: grade 1 ([2]; saflufenacil 100 g ai/ha (4×))
6 plant: The grade of pesticide damage/plant: grade 0 ([2]; saflufenacil 100 g ai/ha (4×))
20: The grade of pesticide: grade 0 ([1]; sulfentrazone 900 g ai/ha (2×))
4: The grade of pesticide: grade 1 ([1]; sulfentrazone 900 g ai/ha (2×))
20 plant: The grade of pesticide damage/plant: grade 0 ([3]; oxyfluorfen 720 g ai/ha (4×))
0: The grade of pesticide: grade 1 ([1]; sulfentrazone 450 g ai/ha (1×)) | The grade of pesticide: grade 2 ([1]; sulfentrazone 450 g ai/ha (1×)) | The grade of pesticide: grade 3 ([1]; sulfentrazone 450 g ai/ha (1×)) | The grade of pesticide: grade 2 ([1]; sulfentrazone 900 g ai/ha (2×)) | The grade of pesticide: grade 3 ([1]; sulfentrazone 900 g ai/ha (2×))
0 plant: The grade of pesticide damage/plant: grade 1 ([2]; saflufenacil 25 g ai/ha (1×)) | The grade of pesticide damage/plant: grade 2 ([2]; saflufenacil 25 g ai/ha (1×)) | The grade of pesticide damage/plant: grade 3 ([2]; saflufenacil 25 g ai/ha (1×)) | The grade of pesticide damage/plant: grade 2 ([2]; saflufenacil 100 g ai/ha (4×)) | The grade of pesticide damage/plant: grade 3 ([2]; saflufenacil 100 g ai/ha (4×)) | The grade of pesticide damage/plant: grade 1 ([3]; oxyfluorfen 180 g ai/ha (1×)) | The grade of pesticide damage/plant: grade 2 ([3]; oxyfluorfen 180 g ai/ha (1×)) | The grade of pesticide damage/plant: grade 3 ([3]; oxyfluorfen 180 g ai/ha (1×)) | The grade of pesticide damage/plant: grade 2 ([3]; oxyfluorfen 720 g ai/ha (4×)) | The grade of pesticide damage/plant: grade 3 ([3]; oxyfluorfen 720 g ai/ha (4×)) | The grade of pesticide damage/plant: grade 1 ([4]; flumioxazin 60 g ai/ha (1×)) | The grade of pesticide damage/plant: grade 2 ([4]; flumioxazin 60 g ai/ha (1×)) | The grade of pesticide damage/plant: grade 3 ([4]; flumioxazin 60 g ai/ha (1×)) | The grade of pesticide damage/plant: grade 1 ([4]; flumioxazin 240 g ai/ha (4×)) | The grade of pesticide damage/plant: grade 2 ([4]; flumioxazin 240 g ai/ha (4×)) | The grade of pesticide damage/plant: grade 3 ([4]; flumioxazin 240 g ai/ha (4×))
